In the DeepSol protein solubility set:

Assay: soluble on expression in E. coli; label from the status in PepcDB or PDB records

Q: For “MDSYTSSDEDASRKENEGLNMLNASPEPMEEDDPEEQAEQEEETSRMARPIRSMRKRETTSGESMGDEDEDLEDEEDEDEEAEAREHHESGAHDTSFSNPLSNVDNLIHVGTEYQAIIQPTAEQLEKEPCRDQQIWAFPDEMNENRLTEYISEATGRYQLPIDRALFILNKQSNDFDAAMVQAMRRKEIHDDWTAEEISLFSTCFFHFGKRFKKIHAAMPQRSLSSIIQYYYNTKKVQNYKTMINVHLNETDTYDELFKEVNHLERVPSGYCENCNAKSDLLILNRVMSRHECKPCILYFRLMRVPRPASLRALTKRRQRVLCPEYMKIYVYGYLELMEPANGKAIKRLGIGKEKEEDDDIMVVDDCLLRKPSGPYIVEQSIEADPIDENTCRMTRCFDTPAALALIDNIKRKHHMCVPLVWRVKQTKCMEENEILNEEARQQMFRATMTYSRVPKGEIANWKKDMMALKGRFERFTPELDTTATNGNRSGKVRINYGWSPEEKKNAIRCFHWYKDNFELIAELMATKTVEQIKKFYMDNEKLILESIDTYRAELKSKLGK”, which “soluble on expression in E. coli” value is on record?
A: Its value is “not soluble”.

Q: For “AVPTVVGIPDGTAVVGRSFRVSIPTDLIASSGEIIKVSAAGKEALPSWLHWDPHSHILEGLPLDTDKGVHYISVSAARLGANGSHVPQTSSVFSIEVYPEDHNEPQSVRAASSDPGEVVPSACAADEPVTVLTVILDADLTKMTPKQRIDLLNRMQSFSEVELHNMKLVPVVNNRLFDMSAFMAGPGNAKKVVENGALLSWKLGCSLNQNSVPDIRGVETPAREGAMSAQLGYPVVGWHIANKKPT”, which “soluble on expression in E. coli” value is on record?
A: Its value is “soluble”.

Q: With “MSEIKRLEINYKTDELFENFRAFGNKDLYMVNELNGQMIDASSDSPFYGIFVGDQLGARMALLKKGDVEEIYFPDFEDYILLWKLEVLPKYQNRGYASELIDFAKSFNMPIKAIGRNDSKDFFLHHGFTDVEAKNIEGHDVLLWKPIRLEHHHHHH” as the sequence, how does the “soluble on expression in E. coli” value read?
A: Its value is “not soluble”.

Q: For “MGSFPNFGAFILRAQEKDGRTCINGLPVASPAKQMLGRFPYLQSLQHDNLSVYLHFSETVIARDLVIVVMEHYTMNLEDILKTGNLKDESLNNNFYSEISSALDYLHTRNIVHGFLHLNSIYITDRKNQKLSVKLSGYGLPFLTNYGKDTASSIKFGAFLAPERILNDEDSLFAATYQSDVWELGFIILQIYLGISLEAEVTETEYLEILNKYYTDDQEKLSTVMEDLIQLLADKKRLPYHKKCEWLEAIIRKCLQMCCSKRCSITEVAAEIEININGVKNNNNKYEYKVKTVEEMRAAVRKEVADNNDGFEKLSVENSFYLWKTCGSTPEIILLKKGIIQNHAPISSYPTVRFDDFLRLDSGVDSQSTFEYGVFDLPSKKTLTRKETGQRVSARMFHKIGILEDKDLLNGNILYETASNMLTVDHLLNASAVFGISSIISRLTNIGVIPTQRADVWCTLLDINETKWRDYLNLDVLASHSSDRQLEVDIPRCHQYDSYMTTPAIQESLRKVLKGWQIVTESQHFVYWQGCDSLATPFLLANMSKPHVAFACFKEFTYRYCHKFYLKDNSEVIKEYLGIFYHLVAYTDPVLYKHLKINGFDAELFAIPWFLTCFAHELPLSKLVLLWDETMMHGNAFPLMIALAMLNRLRDKLLAVNFNEMIIIIHDQPDLSIDEIIKNSRGYEKLIPPSCTFRAHASPWKGTSLSLQQLSSIHCPRMSSEELIWRIERKMVYVLDTRQESEFQSERFSDSFNHPNNNHEADIDWLRFLPGIVCSELPKCFVYGKNDKEAAERLTEAYVMKGVPYICLLHDHFEAVRNRDSVVVKP”, which “soluble on expression in E. coli” value is on record?
A: The value was “not soluble”.

Q: With “MGYDVTRFQGDVDEDLICPICSGVLEEPVQAPHCEHAFCNACITQWFSQQQTCPVDRSVVTVAHLRPVPRIMRNMLSKLQIACDNAVFGCSAVVRLDNLMSHLSDCEHNPKRPVTCEQGCGLEMPKDELPNHNCIKHLRSVVQQQQSRIAELEKTSAEHKHQLAEQKRDIQLLKAYMRAIRSVNPNLQNLEETIEYNEILEWVNSLQPARVTRWGGMISTPDAVLQAVIKRSLVESGCPASIVNELIENAHERSWPQGLATLETRQMNRRYYENYVAERIPGKQAVVVMACENQHMGDDMVQEPGLVMIFAHGVEEI” as the sequence, how does the “soluble on expression in E. coli” value read?
A: The value was “soluble”.

Q: For “DIQMTQSPSSLSASVGDRVTITCRASQDIPRSISGYVAWYQQKPGKAPKLLIYWGSYLYSGVPSRFSGSGSGTDFTLTISSLQPEDFATYYCQQHYTTPPTFGQGTKVEIKRTVAAPSVFIFPPSDEQLKSGTASVVCLLNNFYPREAKVQWKVDNALQSGNSQESVTEQDSKDSTYSLSSTLTLSKADYEKHKVYACEVTHQGLSSPVTKSFNRGEC”, which “soluble on expression in E. coli” value is on record?
A: The value was “soluble”.

Q: With “MSLADERIEVLKDILLELHHGASAESVQERFNQHFKGVSAIEISMMEHELMNADTGITFEDVMGLCNVHANLFKGAIADVDVPDAEQEGHPVKVFKDENLALRAAIMRIRRIIENYTKPENEDFRQEILKGLKHQFDLLGQFYHHYTRKEKLFFPIMERYGHDSPPKVMWGVDDDIRDLFKDAKATLAKLPDGSIEELSQKFEAFAKEFEEMIFKEEAILLMILLESFTQDDWLQIASESDAYGYAILKPTEKWIPHRESFDNEADADTSDNQLADALNQVQDANSPEGTNTKVINTPEGQFTITFKPKEKEAAADRTTQQPFGNGYLSVEQANLILNHLPLEITFVNKDDIFQYYNDSVPAAEMVFKRTPSQVGRNVELCHPPKVLDKVKKVFELLRNGQRDKVNMWFQSERLGKFVYVTYAAVRDQAGDFQGVLEYVQDIKPFFELDSEFNRDEGHHHHHH” as the sequence, how does the “soluble on expression in E. coli” value read?
A: Its value is “soluble”.

Q: Which “soluble on expression in E. coli” value does the source give for “MSKYNAKKVEYKGIVFDSKVECEYYQYLESNMNGTNYDHIEIQPKFELLPKLDKQRKIEYIADFALYLDDKLIEVIDIKGMPTEVAKLKAKIFRHKYRNIKLNWICKAPKYTGKTWITYEELIKARRERKREMK” here?
A: Its value is “not soluble”.

Q: Which “soluble on expression in E. coli” value does the source give for “SEMIVDHRQKAFELLKVDAEKILKLIRVQMDNLTMPQCPLYEEVLDTQMFGLSREIDFAVRLGLVDEKDGKDLLYTLERELSALHDAFTAK” here?
A: Its value is “not soluble”.

Q: With “MKTLYDKLWSDHVVHAESDDPNGMVILYIDRHLVHEVTSPQAFESLKLAGRKPWRTGSILAVADHNVPTTDRSSGISDPVSRLQVETLDQNCEEFAITEFRMNDERQGIVHVIGPEQGATLPGMTVVCGDSHTSTHGAFACLAFGIGTSEVEHVLATQCLVARKSKTMLVRVEGDLPPGVTAKDIALAVIGEIGTAGGTGYAIEFAGSAIRSLSMEGRMTLCNMAIEAGARAGMVGADEVTIDYIKGRPFAPQGALWDQAVAYWRTLKSDEDAVFDRMVELKAVNIKPQVTWGTSPEMVTTVDGYVPDPADISDPTKRHDVEHALGYMGLKPKMPIQEITLDKVFIGSCTNSRIEDLRAAAEIVKGKRIAPNIRLAMVVPGSGLVKSMAEKEGLDKIFLSAGFEWREPGCSMCLAMNDDRLLPGERCASTSNRNFEGRQGPGGRTHLVSPAMAAAAAIAGHFVDVRSFIR” as the sequence, how does the “soluble on expression in E. coli” value read?
A: Its value is “not soluble”.

Q: Which “soluble on expression in E. coli” value does the source give for “VAITDNRGVITHVNEKFCDISQYEYYELVGTTHKIINSGFHPRSFFKQMWKTIAQGNIWKGEICNRTKQGKLYWVDTTIVPLKDNDGLLKNYISIRTDITQ” here?
A: The value was “not soluble”.

Q: For “MSLEHFDDKSQLKRNGFYFSYNVDKENIEHWISAILFQVLKDKEDIVILSLGVDTLVGDSLGPLVGSILKRNGIPNVYGTLDRTVNASNIIKILDEIHERFKNPYILVVDAAVTAENNINDIVLRNGGFTPGFGVYRQLPTVGDFSLVGVVNKEDEREHNLIELLKKCRFDEVLKLARIISKILVLTFARMNKGDKEGHHHHHH”, which “soluble on expression in E. coli” value is on record?
A: Its value is “not soluble”.

Q: With “SLETFHFNYTLISICIYLYIYDGSFISLSEDHKPYNKKEKERIYKIGGFVENGRILGYIGVSRSFGDKNYKIKSDCPYNPHETMISCIPDIKIFYANCDDILFLGCDGLFEMLSWNDVAKFTYDCMNRHTLSDAVINILDYALLSGSKDNITIQIIKFFNE” as the sequence, how does the “soluble on expression in E. coli” value read?
A: Its value is “soluble”.

Q: Which “soluble on expression in E. coli” value does the source give for “MTEHLDVVIVGAGISGVSAAWHLQDRCPTKSYAILEKRESMGGTWDLFRYPGIRSDSDMYTLGFRFRPWTGRQAIADGKPILEYVKSTAAMYGIDRHIRFHHKVISADWSTAENRWTVHIQSHGTLSALTCEFLFLCSGYYNYDEGYSPRFAGSEDFVGPIIHPQHWPEDLDYDAKNIVVIGSGATAVTLVPALADSGAKHVTMLQRSPTYIVSQPDRDGIAEKLNRWLPETMAYTAVRWKNVLRQAAVYSACQKWPRRMRKMFLSLIQRQLPEGYDVRKHFGPHYNPWDQRLCLVPNGDLFRAIRHGKVEVVTDTIERFTATGIRLNSGRELPADIIITATGLNLQLFGGATATIDGQQVDITTTMAYKGMMLSGIPNMAYTVGYTNASWTLKADLVSEFVCRLLNYMDDNGFDTVVVERPGSDVEERPFMEFTPGYVLRSLDELPKQGSRTPWRLNQNYLRDIRLIRRGKIDDEGLRFAKRPAPVGV” here?
A: The value was “soluble”.

Q: For “MSLSNMTQQTRTQQARETMKRVYRYQAANQTRSVIRRSGKTRFIKDTDWERGVFWSCVAAAWLATDDAEYLEGVMNYTLHTGFRPGPNLRFADDLICCQAYLDVWPQIAVPEALEPTIKAVSAMVDEPKPGREDWWWCDSLFMAPATFAALSQRTGDARYLAYMDTAFWDAVDYLRDPDSGLFYRDHRYIPDGNGTELREENGEKVFWSRGIGWVLAAIPRLLARMPEDYTGRQRYLDLFTDLADKVIRYQQADGLWRTSLLDPQRFPAPESSATALFCYGLSWGINQGILAPETYLPVVEKAWDALQGCIHDNGMMGWVQLPAFNPRDVKFEHNMDYGAGAYLLAASEMLRLAEGHHHHHH”, which “soluble on expression in E. coli” value is on record?
A: Its value is “soluble”.

Q: For “MGSDKIHHHHHHMAEKVDYAALKKGGFMRQKQKGCFSLRIAVVGGNLTAENIKTVAEVAEKYGHGYVHMTSRQGIEIPFIKVEDINVVKEELAKGGVGTGVCGPRVRTVTACQGSEICPSGCIDTYTLAKELDERYFGRELPHKFKFGVTGCQNNCLKAEENDVGIKGGMTVECSHDDCIQCGVCVKACREGALSMEDGRIVIDRDKCNNCARCVKSCPTDAWKGTPGYIVSFGGLFGNHIYKGEQLVPIIRDKETLFRVTDAAISFFEKHANGGERFRLTLQRVGEEEFKKEIQAAYEGK”, which “soluble on expression in E. coli” value is on record?
A: Its value is “not soluble”.

Q: For “MGSDKIHHHHHHMKSTGNIIADTICRTAELGLTITGASDAGDYTLIEADALDYTSTCPECSQPGVFRHHTHRMLIDLPIVGFPTKLFIRLPRYRCTNPTCKQKYFQAELSCADHGKKVTHRVTRWILQRLAIDRMSVHATAKALGLGWDLTCQLALDMCRELVYNDPHHLDGVYVIGVDEHKWSHNRAKHGDGFVTVIVDMTGHRYDSRCPARLLDVVPGRSADALRSWLGSRGEQFRNQIRIVSMDGFQGYATASKELIPSARRVMDPFHVVRLAGDKLTACRQRLQREKYQRRGLSQDPLYKNRKTLLTTHKWLSPRQQESLEQLWAYDKDYGALKLAWLAYQAIIDCYQMGNKREAKKKMRTIIDQLRVLKGPNKELAQLGRSLFKRLGDVLAYFDVGVSNGPVEAINGRLEHLRGIALGFRNLNHYILRCLIHSGQLVHKINAL”, which “soluble on expression in E. coli” value is on record?
A: The value was “not soluble”.

Q: Which “soluble on expression in E. coli” value does the source give for “MQSLTTALENLLRHLSQEIPATPGIRVIDIPFPLKDAFDALSWLASQQTYPQFYWQQRNGDEEAVVLGAITRFTSLDQAQRFLRQHPEHADLRIWGLNAFDPSQGNLLLPRLEWRRCGGKATLRLTLFSESSLQHDAIQAKEFIATLVSIKPLPGLHLTTTREQHWPDKTGWTQLIELATKTIAEGELDKVVLARATDLHFASPVNAAAMMAASRRLNLNCYHFYMAFDGENAFLGSSPERLWRRRDKALRTEALAGTVANNPDDKQAQQLGEWLMADDKNQRENMLVVEDICQRLQADTQTLDVLPPQVLRLRKVQHLRRCIWTSLNKADDVICLHQLQPTAAVAGLPRDLARQFIARHEPFTREWYAGSAGYLSLQQSEFCVSLRSAKISGNVVRLYAGAGIVRGSDPEQEWQEIDNKAAGLRTLLQME” here?
A: Its value is “soluble”.
